± gives the uncertainty stated by the source.

The series is described as follows: amyloid nucleation score (Sup35N fusion, yeast selection) (log enrichment); library NNK2; higher = more nucleation; inactive = no reads after selection. The essentials: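 Output and input plasmid inserts were sequenced by Illumina after psi-negative yeast carrying Sup35N fused to peptides of 20 random codons had been induced 24 hours with 100 μM copper sulfate and grown 7 days at 30°C on medium lacking adenine and uracil. The nucleation score is the DiMSum log enrichment of output over input reads, centred on the mode score of non-aggregating sequences. Sequences with under 100 input reads were excluded.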
The substance GTSMCRELNVHNAWRGIHMG returned an amyloid nucleation score of 0.615 ± 0.29.

In turn, GTVNKSMVTSLTVPLIVC yielded an amyloid nucleation score of 0.442 ± 0.28.

GTVTLV registered an amyloid nucleation score of 3.99 ± 0.11.

With GTYFNLYAGVLSVRQWPPHI, the amyloid nucleation score was determined as 4.42 ± 0.061.

Substance GVCFSFVFM returned an amyloid nucleation score of 8.487 ± 0.064.

Substance GVGEEGARVKWIVCNKCFFP gave an amyloid nucleation score of 2.1 ± 0.12.

GVHMSDRVNTMSD registered an amyloid nucleation score of -0.129 ± 1.1.

GVLYWALLDGGVQRGQDMKL yielded an amyloid nucleation score of 0.641 ± 0.62.

In turn, GVMIRKSARYYL registered an amyloid nucleation score of -0.275 ± 0.79.

The substance GVNSLVERFNLWYVLGERTF came in with an amyloid nucleation score of -0.35 ± 0.33.

GVRRRRIRRWLNVSGRYMCE showed an amyloid nucleation score of 2.38 ± 0.23.

Consider GVSSKKV, for which the amyloid nucleation score was found to be 4.768 ± 0.047.

As for GVSVMKVLYLCTIDKALCFG, the amyloid nucleation score was 6.06 ± 0.068.

Turning to GVTLNSCFFNRVYLTLFGIN, the amyloid nucleation score came to 6.946 ± 0.031.

As to GVVWKYRIFPWTFPHNFFHL, the amyloid nucleation score was -0.665 ± 0.39.

GVYPICV: the amyloid nucleation score was determined as 0.416 ± 0.49.

Consider GWAKPMGFNLILR, for which the amyloid nucleation score is 0.265 ± 0.31.

For GWCRYLKDLYI, the amyloid nucleation score is -1.1 ± 0.36.

Substance GWSMCRVSRLTMLVSVVFFC displayed an amyloid nucleation score of 0.377 ± 0.26.

Substance GWSSSGVVIRVPGSFRLVGR had an amyloid nucleation score of 1.39 ± 0.45.

GWVLI: the amyloid nucleation score is -0.994 ± 1.1.

With GYAVRRYDLMNLFRSMWASC, the amyloid nucleation score is -0.739 ± 0.79.

GYAYLSLHKA yielded an amyloid nucleation score of 0.342 ± 0.2.

The substance GYCETNFGGCVPDWMEMLQR returned an amyloid nucleation score of 6.67 ± 0.061.

Regarding GYCLSVTSR, the amyloid nucleation score is 0.641 ± 0.74.

On to GYDIISQKLGIQSYQKCTFI, for which the amyloid nucleation score was -1.86 ± 0.62.

On to GYGSSYLMQARSNRRISVFL, for which the amyloid nucleation score is -0.758 ± 0.79.

Substance GYLQGLCRG had an amyloid nucleation score of -0.047 ± 1.1.

GYPSARIKSDMYWNPMNVPT: the amyloid nucleation score was -0.114 ± 0.37.

GYRLGHRRGGFGVLNGFYGD had an amyloid nucleation score of -0.157 ± 0.79.

For the substance GYVRRSIGYSLLSVVS, the amyloid nucleation score was -0.121 ± 0.46.

As for GYYGARFLVFKFMVRRWMMT, the amyloid nucleation score result was “inactive”.

As for GYYRFLSSLLELTV, the amyloid nucleation score is -0.628 ± 0.76.

Consider GYYYLFFILG, for which the amyloid nucleation score came out at 4.78 ± 0.075.

HAGMIYILYVNLRRTSKRMG returned an amyloid nucleation score of 3.86 ± 0.072.

HAKTWM showed an amyloid nucleation score of 0.066 ± 1.

For HARVKLVIILLTLREGGMFW, the amyloid nucleation score was -0.108 ± 0.62.

On to HAYFFLRDRVRCSIFVIVTT, for which the amyloid nucleation score was -0.453 ± 0.78.

In turn, HAYSWNNRPVGVVRSRSRLF had an amyloid nucleation score of -0.597 ± 0.34.

The substance HAYYHLILDVLFPDGLWL yielded an amyloid nucleation score of -0.938 ± 0.36.

The substance HCFALGR showed an amyloid nucleation score of 0.088 ± 0.21.

Regarding HCGFDQVLEGLTLR, the amyloid nucleation score stood at 0.097 ± 0.42.

The substance HCKSDPWLEPTSVWVFIRLV came in with an amyloid nucleation score of 0.818 ± 0.23.

Turning to HCLGVFARFWIWVGPDGLVI, the amyloid nucleation score is -1.2 ± 0.78.

Consider HCLIMGDNDGTLRTLGGR, for which the amyloid nucleation score was -0.104 ± 0.65.

As for HCRYWVCCQLLVILTYSEAF, the amyloid nucleation score entry is “inactive”.

As for HCSCVKNSTSTDIEE, the amyloid nucleation score result was “inactive”.

In turn, HDYGLCTGVDIWITLSCCDR gave an amyloid nucleation score of 9.637 ± 0.029.

As for HDYVLFISECHKLLGAS, the amyloid nucleation score result is “inactive”.

Regarding HDYYMSVSLMGWY, the amyloid nucleation score was -1.02 ± 0.34.

With HEGNKRARYLALLSEIYFQW, the amyloid nucleation score is 4.65 ± 0.084.

HERGTNVLYTLVEWGARAVS gave an amyloid nucleation score of 1.16 ± 0.49.

Substance HESHHSALFDCLGWQVLVWL yielded an amyloid nucleation score of 6.827 ± 0.049.

As to HFITCFLDRHGALVCYCSES, the amyloid nucleation score stood at 4.76 ± 0.11.

Take HFSYKPVEYPLFSRFKPVFN: the amyloid nucleation score is -0.025 ± 0.79.

HFWCLRCDTIHDSFNYSVVQ: the amyloid nucleation score is 7.373 ± 0.055.

For HGDNFSEVATTFNCMMLLNV, the amyloid nucleation score was -0.243 ± 1.1.
